Measurements taken from publication PMC4624963, “Enzymatic Characterization of Recombinant Food Vacuole Plasmepsin 4 from the Rodent Malaria Parasite Plasmodium berghei” (PLoS ONE, 2015).
Where no end group is shown, it is not given here.

Key:
[1] = biological target: mature plasmepsin 4 of Plasmodium berghei (PbPM4), auto-matured from semi-proPbPM4 (Plasmodium berghei ANKA); test: enzyme inhibition kinetics (Ki of competitive inhibition); initial cleavage velocities of a chromogenic peptide substrate at varied inhibitor concentration, spectrophotometric; proPbPM4 pre-incubated in 100 mM sodium citrate pH 5.0, 37°C, 5 min; tight-binding or non-tight-binding competitive fit
[2] = biological target: plasmepsin 4 from Plasmodium ovalae (P. ovalae); test: enzyme inhibition kinetics (Ki of competitive inhibition); initial cleavage velocities of a chromogenic peptide substrate at varied inhibitor concentration; plasmepsins pre-incubated in 100 mM sodium formate pH 4.5, 37°C, 5 min to convert zymogen to mature enzyme
[3] = biological target: plasmepsin 4 from Plasmodium vivax (Plasmodium vivax); test: as above
[4] = biological target: plasmepsin 4 from Plasmodium malariae (Plasmodium malariae); test: as above
[5] = biological target: human cathepsin D (human) (UniProt P07339); test: enzyme inhibition kinetics (Ki of competitive inhibition); initial cleavage velocities of a chromogenic peptide substrate at varied inhibitor concentration; hcatD pre-incubated in 200 mM sodium formate pH 3.7, 37°C, 5 min

| Binder | Ki [1] | other results |
| --- | --- | --- |
| KPYEFRQF (not fully specified (residue 5); printed as KPYEFΨRQF; also: Ψ pseudo-peptide bond between F5 and R6) [compound 1 (KPYEFΨRQF), peptidomimetic inhibitor designed for PbPM4] | 3900 nM | Ki [2]: 1900 nM; Ki [3]: 426 nM; Ki [4]: 445 nM; Ki [5]: 41000 nM |
| KPLEFFRV (not fully specified (residue 5); printed as KPLEFΨFRV; also: Ψ pseudopeptide bond between F5 and F6) [compound 5 (KPLEFΨFRV), peptidomimetic inhibitor designed for PvPM4] | 1.4 nM |  |
| KPLEFYRV (not fully specified (residue 5); printed as KPLEFΨYRV; also: Ψ pseudopeptide bond between F5 and Y6) [compound 6 (KPLEFΨYRV), peptidomimetic inhibitor designed for PoPM4] | 0.12 nM |  |
| KPFELAWT (not fully specified (residue 5); printed as KPFELΨAWT; also: Ψ pseudopeptide bond between L5 and A6) [compound 7 (KPFELΨAWT), peptidomimetic inhibitor designed for PmPM4] | 8100 nM |  |
| KPFSLLQF (not fully specified (residue 5); printed as KPFSLΨLQF; also: Ψ pseudopeptide bond between L5 and L6) [compound 2 (KPFSLΨLQF), peptidomimetic inhibitor designed for PfPM1] | 379 nM |  |
| KPVEFRQT (not fully specified (residue 5); printed as KPVEFΨRQT; also: Ψ pseudopeptide bond between F5 and R6) [compound 4 (KPVEFΨRQT), peptidomimetic inhibitor designed for PfPM4] | 502 nM |  |
